The test system of experiment [1] is engineered receptors and wildtype nAchRa7 receptor expressed in HEK293 cells. Description: Whole cell manual patch clamp electrophysiology, EC50, HEK293 cells. It is filed as cell-based, human. Particulars: for EC50: ligand TC-5619, HEK293 cell line, read-out: Manual patch clamp based EC50, TC-5619. The procedure: (§1) Using whole cell manual patch clamp electrophysiology in HEK293 cells, rat DRG neurons and rat hippocampal neurons, the EC50 of the various engineered receptors disclosed herein to Ach and non-native ligands was measured using the Hill equation with peak current measurements from escalating doses of ligand. The rheobase shift was also measured in rat DRG neurons, which reflects the efficacy of the receptors. To calculate the rheobase, first, the amount of current that can produce an action potential was determined. Then the ligand was added, followed by a step wise increase in the current injected up to 700 pA.
(§2) For manual patch clamp experiments, Cells plated on coverslips were visualized at 10x and 40x on an inverted fluorescence microscope (Olympus). Recordings were made with an Axopatch 200B amplifier and Digidata 1550B (Molecular Devices) at RT using 3-6 MOhm glass patch electrodes (Sutter, BF150-86-10). Unless otherwise stated, recordings were made in extracellular solution (ECS) containing: 140 mM sodium chloride, 4 mM potassium chloride, 1 mM magnesium chloride, 2 mM calcium chloride, 10 mM HEPES, and 10 mM D-(+)-glucose (pH=7.3 with sodium hydroxide, osmolarity=305-315 mOsm). An 8-line reservoir (AutoMate Scientific) in combination with an 8-channel zero-dead-volume perfusion pencil (AutoMate Scientific) was used for perfusion. Data was acquired using pClamp software (Molecular Devices). Traces were either analyzed in Clampfit (Molecular Devices) or using custom Python code. Plotting and statistics were performed in GraphPad Prism.
For dose-response, ligand-induced currents were recorded in voltage clamp mode. For HEK cell experiments, recordings took place in the normal ECS with a cesium-based internal solution containing: 140 mM cesium chloride, 5 mM potassium fluoride, 2 mM Calcium chloride, 2 mM magnesium chloride, 10 mM HEPES, and 10 mM EGTA (pH=7.2 with cesium hydroxide, osmolarity=290-295 mOsm). For DRG neuron experiments, cells were patched in normal ECS and then switched to an NMDG-based ECS to prevent endogenous cation currents, containing: 145 mM N-methyl-D-glucamine, 4 mM potassium chloride, 0.5 mM magnesium chloride, 0.5 mM calcium chloride, 10 mM HEPES, and 10 mM D-(+)-glucose (pH=7.4 with hydrochloric acid, osmolarity=305-315mOsm). […] Capacitance and series resistance were compensated. Drugs tested include acetycholine chloride and other synthetic compounds. Drug doses were applied for 1-10 sec until the peak of the current was observed, and washes occurred for at least 2 min between dose applications. The holding current was subtracted from the peak to find the current amplitude.
Cell culture: HEK 293 cells were routinely subcultured in DMEM with 10% fetal bovine serum (ThermoFisher Scientific). […]

Experiment [2] concerns engineered receptors and wild type nAchRa7 expressed in HEK293T cells. The experiment is described as follows: High throughput electrophysiology (IonFlux HT/Mercury automated patch clamp), EC50. It counts as cell-based, human. The following applies: for EC50: ligand TC-5619. As for the experimental part:
To confirm the […] determined by plate reader as well as develop a better understanding of maximum current flow, the engineered receptors were subjected to high throughput electrophysiology system, as described below. For HEK293T studies, cDNAs encoding ion channels were cloned into pcDNA3.1 using standard recombination techniques. HEK293T cells from Clontech (Lenti-XTM 293T Cell Line) were cultured in DMEM supplemented with 10% FBS and 1% Pen/Strep to 40-50% confluence using standard cell culture protocols, transfected with ion channel plasmids at a concentration of 18 μg per 15 cm dish using Fugene 6, and grown for an additional 24 hours. Cells were then assayed on an electrophysiological system (IonFluxHT and/or Mercury, Fluxion Biosciences) in which dose-response relationships may be assessed through a microfluidics-based platform for establishing whole cell configurations. Ensemble plates were primed with extracellular buffer (140 mM NaCl, 5 mM KCl, 2 mM CaCl2), 1 mM MgCl2, 10 mM HEPES, and 10 mM glucose, pH 7.2 with NaOH, mOsm 310), intracellular buffer (145 mM CsCl, 2 mM CaCl2, 2 mM MgCl2, 10 mM HEPES, and 10 mM EGTA, pH 7.2 with CsOH, mOsm 305), as adapted from Lynagh and Lynch, and test compounds (stocks prepared fresh) diluted in extracellular buffer. Cells were then released from the plate with Accutase, centrifuged, resuspended in extracellular buffer, and loaded into Ensemble plates. Cells were then subjected to a standard protocol for priming, trapping, breaking, and establishing whole cell configuration, with cells held at −60 mV throughout the recording. After recording baseline, progressive doses of test compounds were applied using the IonFlux software to assess dose response relationships. Data were then analyzed off-line using custom Python scripts to convert data to .csv format, re-plot traces, and apply QC measurements to reject unstable recordings (i.e. thresholding based on access resistance and/or standard deviation in baseline, as well as artifact rejection). Peak currents were then calculated, and population data were fit using a 4-parameter logistic equation as described by the Hill Equation. Currents were measured on an automated patch clamp system (Fluxion Biosciences) following 1 second addition of drug and the EC50 values calculated are tabulated below in Table 22A and Table 22B below and Table 21A and Table 21B above (in Example 2).
(The patch-clamp technique gives a direct electrical read-out from membranes.)

Experiment [3] relates to engineered receptors expressed in rat DRG neurons. The experiment is described as follows: Manual patch clamp ligand-induced chloride currents / EC50, rat DRG neurons. The following applies: for EC50: ligand TC-5619, Rat DRG Neurons, read-out: Manual patch clamp based EC50, TC-5619. It counts as cell-based. As for the experimental part:
as §1, §2
For dose-response, ligand-induced currents were recorded in voltage clamp mode. For HEK cell experiments, recordings took place in the normal ECS with a cesium-based internal solution containing: 140 mM cesium chloride, 5 mM potassium fluoride, 2 mM Calcium chloride, 2 mM magnesium chloride, 10 mM HEPES, and 10 mM EGTA (pH=7.2 with cesium hydroxide, osmolarity=290-295 mOsm). […]

Where [4] appears, read: HEK293 cells and cultured rat DRG sensory neurons.
Where [5] appears, read: HEK293 Cell Line, Table 22A, read-out: High-throughput Ephys EC50 (uM) TC-5619.
The mark [6] stands for this setting: high throughput electrophysiology, read-out: TC-5619 EC50 (ephys).

Read-outs that look alike come from different tables or passages of the source.

B1: CODA806: engineered receptor: Y115D, L131Q in SEQ ID NO: 33 (Chemogenic receptor-11) (protein)
chain: MRCSPGGVWLALAASLLHVSLQGEFQRKLYKELVKNYNPLERPVANDSQPLTVYFSLSLLQIMDVDEKNQVLTTNIWLQMSWTDHYLQWNVSEYPGVKTVRFPDGQIWKPDILLDNSADERFDATFHTNVQVNSSGHCQYLPPGIFKSSCPMDLKNFPMDVQTCKLKFGSWSYGGWSLDLQMQEADISGYIPNGEWDLVGIPGKRSERFYECCKEPYPDVTFTVTMRRRMGYYLIQMYIPSLLIVILSWISFWINMDAAPARVGLGITTVLTMTTQSSGSRASLPKVSYVKAIDIWMAVCLLFVFSALLEYAAVNFVSRQHKELLRFRRKRRHHKSPMLNLFQEDEAGEGRFNFSAYGMGPACLQAKDGISVKGANNSNTTNPPPAPSKSPEEMRKLFIQRAKKIDKISRIGFPMAFLIFNMFYWIIYKIVRREDVHNQ
modifications: synthetic sequence of chimeric LGIC
For the molecule B1, in experiment [1] (setting [4]), the “sensitivity to RG-3487 compared to wildtype nAchRa7 receptor” value is “way more sensitive to RG-3487” and the “sensitivity to acetylcholine compared to wildtype nAchRa7 receptor” value is “essentially insensitive to acetylcholine”. The “fold increased potency towards RG-3487 compared to wild type receptor” value in experiment [2] (ligand RG-3487) is reported as “over 10 fold”. For the same molecule, in experiment [2] (ligand acetylcholine), the “fold reduced potency to acetylcholine compared to wild type receptor” value is given as “over 500 fold”. The “chloride current on application of RG-3487 (SA-2)” value in experiment [3] (cultured adult rat DRG neurons, not observed in non-transduced cells, FIG. 3) is “generated chloride current in a dose dependent manner”.

B2: COAD1056 (protein)
chain: MRCSPGGVWLALAASLLHVSLQGEFQRKLYKELVKNYNPLERPVANDSQPLTVYFSLSLLQIMDVDEKNQVLTTNIWLQMSWTDHYLQWNVSEYPGVKTVFFPDGQIWKPDILLENSADERFDATFHTNVLVNSSGHCQYLPPGIFKSSCPMDLKNFPMDVQTCKLKFGSWSYGGWSLDLQMQEADISGYIPNGEWDLVGIPGKRSERFWECCKEPYPDVTFTVTMRRRMGYYLIQMYIPSLLIVILSWISFWINMDAAPARVGLGITTVLTMTTQSSGSRASLPKVSYVKAIDIWMAVCLLFVFSALLEYAAVNFVSRQHKELLRFRRKRRHHKSPMLNLFQEDEAGEGRFNFSAYGMGPACLQAKDGISVKGANNSNTTNPPPAPSKSPEEMRKLFIQRAKKIDKISRIGFPMAFLIFNMFYWIIYKIVRREDVHNQ
modifications: synthetic sequence of chimeric LGIC
For orientation: EC50 means the concentration giving half of the maximal effect. On to B2, for which the EC50 in experiment [1] turned out to be 96 nM; in experiment [2] (setting [5]) it was 0.042 µM; in experiment [2] (setting [6]), 0.0421 µM; in experiment [3], 116 nM.

B3: COAD1055 (protein)
chain: MRCSPGGVWLALAASLLHVSLQGEFQRKLYKELVKNYNPLERPVANDSQPLTVYFSLSLLQIMDVDEKNQVLTTNIWLQMSWTDHYLQWNVSEYPGVKTVWFPDGQIWKPDILLENSADERFDATFHTNVLVNSSGHCQYLPPGIFKSSCPMDLKNFPMDVQTCKLKFGSWSYGGWSLDLQMQEADISGYIPNGEWDLVGIPGKRSERFWECCKEPYPDVTFTVTMRRRMGYYLIQMYIPSLLIVILSWISFWINMDAAPARVGLGITTVLTMTTQSSGSRASLPKVSYVKAIDIWMAVCLLFVFSALLEYAAVNFVSRQHKELLRFRRKRRHHKSPMLNLFQEDEAGEGRFNFSAYGMGPACLQAKDGISVKGANNSNTTNPPPAPSKSPEEMRKLFIQRAKKIDKISRIGFPMAFLIFNMFYWIIYKIVRREDVHNQ
modifications: synthetic sequence of chimeric LGIC
B3: the EC50 came out at 16 nM in experiment [1], 0.0106 µM in experiment [2] (setting [5]), 0.0106 µM in experiment [2] (setting [6]) and 56 nM in experiment [3].

The values are drawn from patent US20250152742A1, “COMPOSITIONS AND METHODS FOR NEUROLOGICAL DISEASES” (Trames Bio, Inc., priority 2022, published 2025).
